{"source": "paper PMC9001643", "about": "(Scientific Reports, 2022)", "target": "the molecule itself", "test": "crystal structure; His6-dmJMJD7.Mn(II).ligand complexes (2OG, succinate, N-oxalylglycine, 2,4-PDCA, N-oxalyl-D-alanine, N-oxalyl-D-phenylalanine); sitting drops at 25 °C, 0.1 M Bis-Tris pH 5.4, 0.3 M magnesium chloride, 18-23% PEG 3350; two molecules per asymmetric unit, space group P2_(1)"}
{"protein": "Drosophila melanogaster Jumonji domain-containing 7 (His6-dmJMJD7) (enzyme, UniProt Q9VU77 1-316, looked up, JMJD7 of Drosophila melanogaster, full length, aa 1-316, UniProt Q9VU77, cloned into pET28a; Homodimer in the crystals; the two monomers are covalently linked by a disulfide bond Cys37-Cys37'; Crystallised with Mn(II) in place of Fe(II) and with 2OG, succinate or a 2OG analogue; also called JMJD7_DROME; not shown: His6, N-terminal, kept) MSEVERALDVLLQEAEELCIGSSVVELDRIPTALEFCREFYSKNQPVVIRKALNWPAIGKWTPKYLIEALGDRSVDVAITPNGYADGLATQNGQEYFVLPLETKMKLSEVVRRLDDPTGAVHYIQKQNSNLSVDLPELAADLRVSDLDFAQQSFNKPPDAVNFWLGDERAVTSMHKDPYENVYCVISGHKDFVLIPPHQLSCVPRGIYPTGVYKTSDSGQFYIEPLRDEEGSDQFTEWVSVDPLSPDLAKYPEYARAKPLKVRVHAGDILYLPNYWFHHVSQSHKCIAVNFWYDLDYDSRYCYYRMLEQMTSARSG", "values": [{"measurement": "stoichiometry N", "result": 2}]}
